B1: Lysozyme C, P61626 (parent)
chain: MKALIVLGLVLLSVTVQGKVFERCELARTLKRLGMDGYRGISLANWMCLAKWESGYNTRATNYNAGDRSTDYGIFQINSRYWCNDGKTPGAVNACHLSCSALLQDNIADAVACAKRVVRDPQGIRAWVAWRNRCQNRDVRQYVQGCGV

Variants of: B1
Settings: Homo sapiens; pH 2.54; Thermal; DSC; glycine 0.05 M; reversible: yes; structure 1LZ1; whole UniProt chain shown
For MKALIVLGLVLLSVTVQGKVFERCELARTLKRLGMDGYRGISLANWMCLAKWESGYNTRATNYNAGDRSTDYGIFQFNSRYWCNDGKTPGAVNACHLSCSALLQDNIADAVACAKRVVRDPQGIRAWVAWRNRCQNRDVRQYVQGCGV [I77F], the Tm was 59.8 °C, the “heat capacity change of unfolding” value was 1.41 kcal/mol/K and the “unfolding enthalpy (calorimetric)” value was 99.9 kcal/mol. The “unfolding enthalpy (van 't Hoff)” value was 108 kcal/mol.

Same assay, conditions: Homo sapiens; pH 2.7; 64.9 °C; Thermal; DSC; glycine 0.05 M; reversible: yes; structure 1LZ1; whole UniProt chain shown
For MKALIVLGLVLLSVTVQGKVFERCELARTLKRLGMDGYRGISLANWMCLAKWESGYNTRATNYNAGDRSTDYGIFQFNSRYWCNDGKTPGAVNACHLSCSALLQDNIADAVACAKRVVRDPQGIRAWVAWRNRCQNRDVRQYVQGCGV [I77F], the “ddG of mutation (higher = less stable)” value was 0.81 kcal/mol.
In the case of MKALIVLGLVLLSVTVQGKVFERCELARTLKRLGMDGYRGISLANWMCLAKWESGYNTRATNYNAGDRSTDYGIFQTNSRYWCNDGKTPGAVNACHLSCSALLQDNIADAVACAKRVVRDPQGIRAWVAWRNRCQNRDVRQYVQGCGV [I77T], the “ddG of mutation (higher = less stable)” value is reported as 2.22 kcal/mol.

Same assay, conditions: Homo sapiens; pH 2.7; Thermal; DSC; glycine 0.05 M; reversible: yes; structure 1LZ1; whole UniProt chain shown
Variant MKALIVLGLVLLSVTVQGKVFERCELARTLKRLGMDGYRGISLANWMCLAKWESGYNTRATNYNAGDRSTDYGIFQFNSRYWCNDGKTPGAVNACHLSCSALLQDNIADAVACAKRVVRDPQGIRAWVAWRNRCQNRDVRQYVQGCGV [I77F] has a Tm of 64.9 °C.
For MKALIVLGLVLLSVTVQGKVFERCELARTLKRLGMDGYRGISLANWMCLAKWESGYNTRATNYNAGDRSTDYGIFQTNSRYWCNDGKTPGAVNACHLSCSALLQDNIADAVACAKRVVRDPQGIRAWVAWRNRCQNRDVRQYVQGCGV [I77T], the Tm was 64.9 °C.

Same assay, conditions: Homo sapiens; pH 2.73; Thermal; DSC; glycine 0.05 M; reversible: yes; structure 1LZ1; whole UniProt chain shown
With MKALIVLGLVLLSVTVQGKVFERCELARTLKRLGMDGYRGISLANWMCLAKWESGYNTRATNYNAGDRSTDYGIFQFNSRYWCNDGKTPGAVNACHLSCSALLQDNIADAVACAKRVVRDPQGIRAWVAWRNRCQNRDVRQYVQGCGV [I77F] the Tm was 62.8 °C, the “heat capacity change of unfolding” value was 1.58 kcal/mol/K and the “unfolding enthalpy (calorimetric)” value was 104 kcal/mol. The “unfolding enthalpy (van 't Hoff)” value was 112 kcal/mol.

Same assay, conditions: Homo sapiens; pH 2.9; Thermal; DSC; glycine 0.05 M; reversible: yes; structure 1LZ1; whole UniProt chain shown
For MKALIVLGLVLLSVTVQGKVFERCELARTLKRLGMDGYRGISLANWMCLAKWESGYNTRATNYNAGDRSTDYGIFQFNSRYWCNDGKTPGAVNACHLSCSALLQDNIADAVACAKRVVRDPQGIRAWVAWRNRCQNRDVRQYVQGCGV [I77F], the Tm was 65.4 °C, the “heat capacity change of unfolding” value was 1.2 kcal/mol/K and the “unfolding enthalpy (calorimetric)” value was 108 kcal/mol. For the same variant, the “unfolding enthalpy (van 't Hoff)” value was 116 kcal/mol.

Same assay, conditions: Homo sapiens; pH 3.05; Thermal; DSC; glycine 0.05 M; reversible: yes; structure 1LZ1; whole UniProt chain shown
In the case of MKALIVLGLVLLSVTVQGKVFERCELARTLKRLGMDGYRGISLANWMCLAKWESGYNTRATNYNAGDRSTDYGIFQFNSRYWCNDGKTPGAVNACHLSCSALLQDNIADAVACAKRVVRDPQGIRAWVAWRNRCQNRDVRQYVQGCGV [I77F], the Tm is reported as 68 °C, the “heat capacity change of unfolding” value is reported as 1.29 kcal/mol/K and the “unfolding enthalpy (calorimetric)” value is reported as 111 kcal/mol. For the same variant, the “unfolding enthalpy (van 't Hoff)” value was 120 kcal/mol.

Same assay, conditions: Homo sapiens; pH 3.15; Thermal; DSC; glycine 0.05 M; reversible: yes; structure 1LZ1; whole UniProt chain shown
For MKALIVLGLVLLSVTVQGKVFERCELARTLKRLGMDGYRGISLANWMCLAKWESGYNTRATNYNAGDRSTDYGIFQFNSRYWCNDGKTPGAVNACHLSCSALLQDNIADAVACAKRVVRDPQGIRAWVAWRNRCQNRDVRQYVQGCGV [I77F], the Tm was 69.8 °C, the “heat capacity change of unfolding” value was 1.36 kcal/mol/K and the “unfolding enthalpy (calorimetric)” value was 114 kcal/mol. For the same variant, the “unfolding enthalpy (van 't Hoff)” value was 123 kcal/mol.
For MKALIVLGLVLLSVTVQGKVFERCELARTLKRLGMDGYRGISLANWMCLAKWESGYNTRATNYNAGDRSTDYGIFQTNSRYWCNDGKTPGAVNACHLSCSALLQDNIADAVACAKRVVRDPQGIRAWVAWRNRCQNRDVRQYVQGCGV [I77T], the Tm was 64.9 °C, the “heat capacity change of unfolding” value was 1.2 kcal/mol/K and the “unfolding enthalpy (calorimetric)” value was 111 kcal/mol. The “unfolding enthalpy (van 't Hoff)” value was 119 kcal/mol.

Same assay, conditions: Homo sapiens; pH 2.4; Thermal; DSC; glycine 0.05 M; reversible: yes; structure 1LZ1; whole UniProt chain shown
With MKALIVLGLVLLSVTVQGKVFERCELARTLKRLGMDGYRGISLANWMCLAKWESGYNTRATNYNAGDRSTDYGIFQTNSRYWCNDGKTPGAVNACHLSCSALLQDNIADAVACAKRVVRDPQGIRAWVAWRNRCQNRDVRQYVQGCGV [I77T] the Tm was 52.9 °C, the “heat capacity change of unfolding” value was 1.65 kcal/mol/K and the “unfolding enthalpy (calorimetric)” value was 90.3 kcal/mol. The “unfolding enthalpy (van 't Hoff)” value was 98.7 kcal/mol.

Same assay, conditions: Homo sapiens; pH 2.62; Thermal; DSC; glycine 0.05 M; reversible: yes; structure 1LZ1; whole UniProt chain shown
In the case of MKALIVLGLVLLSVTVQGKVFERCELARTLKRLGMDGYRGISLANWMCLAKWESGYNTRATNYNAGDRSTDYGIFQTNSRYWCNDGKTPGAVNACHLSCSALLQDNIADAVACAKRVVRDPQGIRAWVAWRNRCQNRDVRQYVQGCGV [I77T], the Tm is reported as 56.9 °C, the “heat capacity change of unfolding” value is reported as 1.67 kcal/mol/K and the “unfolding enthalpy (calorimetric)” value is reported as 104 kcal/mol. For the same variant, the “unfolding enthalpy (van 't Hoff)” value was 105 kcal/mol.

Same assay, conditions: Homo sapiens; pH 2.8; Thermal; DSC; glycine 0.05 M; reversible: yes; structure 1LZ1; whole UniProt chain shown
With MKALIVLGLVLLSVTVQGKVFERCELARTLKRLGMDGYRGISLANWMCLAKWESGYNTRATNYNAGDRSTDYGIFQTNSRYWCNDGKTPGAVNACHLSCSALLQDNIADAVACAKRVVRDPQGIRAWVAWRNRCQNRDVRQYVQGCGV [I77T] the Tm was 59.5 °C, the “heat capacity change of unfolding” value was 1.17 kcal/mol/K and the “unfolding enthalpy (calorimetric)” value was 106 kcal/mol. The “unfolding enthalpy (van 't Hoff)” value was 110 kcal/mol.

Same assay, conditions: Homo sapiens; pH 2.99; Thermal; DSC; glycine 0.05 M; reversible: yes; structure 1LZ1; whole UniProt chain shown
For MKALIVLGLVLLSVTVQGKVFERCELARTLKRLGMDGYRGISLANWMCLAKWESGYNTRATNYNAGDRSTDYGIFQTNSRYWCNDGKTPGAVNACHLSCSALLQDNIADAVACAKRVVRDPQGIRAWVAWRNRCQNRDVRQYVQGCGV [I77T], the Tm was 62.9 °C, the “heat capacity change of unfolding” value was 1.39 kcal/mol/K and the “unfolding enthalpy (calorimetric)” value was 107 kcal/mol. For the same variant, the “unfolding enthalpy (van 't Hoff)” value was 107 kcal/mol.

Source: FireProtDB (doi:10.1093/protein/12.10.841)
